The text below walks through data of publication PMC3891018 (Scientific Reports, 2014).

In this test the target is H-ficolin (human, UniProt O75636 24-299). Kind of test: SPR. On the technique in general: In SPR one partner is held on a chip, and binding of the other changes the refractive index at the surface.
Chain of H-ficolin (O75636 24-299): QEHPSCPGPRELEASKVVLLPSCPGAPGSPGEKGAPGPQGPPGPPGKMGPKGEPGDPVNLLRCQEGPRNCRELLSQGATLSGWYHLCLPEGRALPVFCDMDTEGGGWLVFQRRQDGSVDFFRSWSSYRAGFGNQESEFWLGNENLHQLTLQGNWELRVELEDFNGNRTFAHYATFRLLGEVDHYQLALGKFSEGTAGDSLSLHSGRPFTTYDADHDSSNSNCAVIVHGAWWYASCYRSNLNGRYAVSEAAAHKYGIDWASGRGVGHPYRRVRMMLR

What is called Kd is the equilibrium constant for the complex coming apart. As for DTLMISRTPEVTCVV [nIgG peptide DTLMISRTPEVTCVV 278-292 (peptide 1)], the Kd was about 1000 nM.
With LTCLVKGFYPSDI [nIgG peptide LTCLVKGFYPSDI 394-406 (peptide 6)], the Kd was about 1000 nM.
